In patent CN113150131A (SHANGHAI PUBLIC HEALTH CLINICAL CT, dated 2021):
Where two headings read alike, the source gives them in different places.

T1: 2C-121-270aa小肽段 #3 (CVA10病毒 (coxsackievirus A10))
T1 peptide: PGTGKSLATGIIARA

T2: 2C-121-270aa小肽段 #4 (CVA10病毒 (coxsackievirus A10))
T2 peptide: SLATGIIARAIADKY


Legend:
2C-121-270aa小肽段 #3 = molecular target: T1, 2C-121-270aa小肽段 #3; assay: ELISA on coated synthetic peptides
2C-121-270aa小肽段 #4 = molecular target: T2, 2C-121-270aa小肽段 #4; assay: ELISA on coated synthetic peptides
CVB3病毒2C蛋白 [1] = molecular target: T3, CVB3病毒2C蛋白 (CVB3, UniProt P03313 1101-1429)
T3 construct: domain: 2C蛋白

2C-121-270aa肽段 = molecular target: T4, 2C-121-270aa肽段 (CVA10病毒 (coxsackievirus A10)); assay: western blot on truncated 2C fragments expressed in 293T cells
T4 construct: Expressed in 293T cells from pcDNA6.0 and detected with a Flag antibody, so it carries a Flag tag

CVB3病毒2C蛋白 [2] = molecular target: T3, CVB3病毒2C蛋白; remark: listed apart in the source
CVA10病毒2C蛋白 = molecular target: T5, CVA10病毒2C蛋白 (CVA10病毒 (coxsackievirus A10), UniProt Q65900 1112-1440); assay: western blot on virus-infected RD cells
T5 construct: In ELISA it was purified 2C protein from prokaryotic expression, coated on the plate; In western blot, immunofluorescence and flow cytometry it was the 2C protein made in CVA10-infected RD cells (intracellular); also called CVA10-2C

| Binder | binding result (2C-121-270aa小肽段 #3) | binding result (2C-121-270aa小肽段 #4) | binding result (CVB3病毒2C蛋白 [1]) | binding result (2C-121-270aa肽段) | binding result (CVB3病毒2C蛋白 [2]) | binding result (CVA10病毒2C蛋白) |
| --- | --- | --- | --- | --- | --- | --- |
| M3-8单克隆抗体 (M3-8 mAb) (antibody, V domains shown, also called M3-8细胞上清; 纯化的单克隆抗体(M3-8 mAb)) VH: QVQLQQSGAELVRPGASVKLSCKALGYTFADNEMHWVKQTPVHGLEWIGGIHPGSGGTAYNQKFKGKATLTADKSSSTAYMELSSLTSEDSAVYYCTRDYYWYDEGFDYWGQGTTLTVSS VL: DIVMTQTPLSLPVSLGDQASISCRSSQSLVHSNGNTYLHWYLQKPGQSPELLIYKVSNRFSGVPDRFSGSGSGTDFTLKISRVEAEDLGVYFCSQSTHIPLTFGAGTKLELK | binds | binds | no binding | binds | – | – |
| M3-8重组抗体 (antibody, V domains shown, also called M3-8 mAb重组抗体) VH: QVQLQQSGAELVRPGASVKLSCKALGYTFADNEMHWVKQTPVHGLEWIGGIHPGSGGTAYNQKFKGKATLTADKSSSTAYMELSSLTSEDSAVYYCTRDYYWYDEGFDYWGQGTTLTVSS VL: DIVMTQTPLSLPVSLGDQASISCRSSQSLVHSNGNTYLHWYLQKPGQSPELLIYKVSNRFSGVPDRFSGSGSGTDFTLKISRVEAEDLGVYFCSQSTHIPLTFGAGTKLELK | – | – | – | – | no binding | binds |
